One experiment deals with PC-12 cells. In words: DA and 5-HT in dialysate of PC-12 cells medium after NGF induction (HPLC-ED). The format is cell-based. As to conditions: after induction with NGF of PC-12 cells. How it is done:
(§1) A microdialysis system consists of a basic microdialysis pump (CMA/100, CMA, Stockholm, Sweden), a fraction collector (CMA/140, CMA), and a microdialysis probe cemented to a Petri dish (FIG. 3). The dialysis probe was made of a dialysis membrane 30 mm in length, 150 μm in outer diameter, and a nominal molecular weight cutoff of 13,000. Ringer solution (8.6 g/L NaCl, 0.3 g/L KCl, and 0.33 g/L CaCl2) was perfused through the probe at a flow rate of 2 μl/min. Microdialysate samples were collected every 10 min. Each microdialysate of 10 μl was injected manually into the chromatographic system and was assayed on the same sampling day. The Liquid chromatography and electrochemical detection contains a model HTEC-500 LC-ED system (Eicom, Kyoto, Japan), consisting of a three-electrode cell with Ag/AgCl as the reference electrode, a counter-electrode, and a graphite electrode as the working electrode, were used to measure dopamine (DA) and serotonin (5-HT). The experiment employed a graphite working electrode with a 25-μm gasket with the applied potential set at +450 mV versus Ag/AgCl. The column used for the separation of DA and 5-HT was a PP-ODS column (4.6×30 mm, Eicom) at room temperature (25° C.). […]

A further experiment concerns neural stem cell. The experiment in a line: DA and 5-HT in dialysate of neural stem cell medium after NGF induction (microdialysis, HPLC-ED). As to conditions: after induction with polyornithine/laminin-coating plate and NGF of neural stem cell. The experiment is classed as cell-based. The protocol: as §1
Experiment [1] has as its system LPS-treated NSCs. In words: ELISA of IL-1β, IL-6 and TNF-α in LPS-treated NSCs. The experiment is classed as cell-based, rat. As to conditions: vs only LPS-treated NSCs; IM 3 μM; p<0.05. The protocol:
(§2) IM was purchased from Sigma Chem. Co., St Louis, Mo., USA. NSCs were seeded on 24-well plates at a density of 2×10^4 cells/well in medium, followed by methyl thiazol tetrazolium assay (MTT assay) (Sigma-Aldrich Co., St Louis, Mo., USA) for cell viability. NSCs were incubated with 0.25 mg/ml MTT for 4 hours at 37° C. and the reaction was terminated by the addition of 100% isopropanol. The amount of MTT fromazon product was determined using a microplate reader and the absorbance was measured at 560 nm (SpectraMax 250, Molecular Devices, Sunnyvale, Calif., USA). NSCs were exposed to 0, 1, 2, 5, 10, 20, 30, 40, 50, 100, 200, and 300 μM of IM for 1, 3, 5, and 7 days, respectively. The activities of caspases 8 and 3 (Medical and Biological Laboratories Co., Ltd., Nagoya, Japan), and the concentration of IL-6, IL-1 and TNF-α (Pharmingen, San Diego, Calif., USA) were determined by ELISA kits and quantified by reading at 490 nm (MRX; Dynatech Laboratories, Chantilly, Va., USA). Each individual sample was analyzed in triplicate.
(§3) Double-stranded, short interfering RNA (siRNA) of BDNF and Bcl-2 were chemically synthesized by Ambion Inc., Austin, Tex., USA). The sense and antisense sequences of BDNF were designed as follows: Sense: […]tt; Antisense: AGCTTAAAAAGAG CTGtt, starting from nucleotide 137 of the Bcl-2 sequence (accession number L14680). The sense and antisense sequences of Bcl-2 were designed as follows: Sense: GCGCUGGAUAUAACUUCUUtt; Antisense: AAGAAGUUAUAUC CAGCGCtt, starting from nucleotide 137 of the Bcl-2 sequence (accession number L14680). In this test, the siRNA control used was siRNA-Cy3 (QIAGEN; sense sequence: UUCUCCGAACGUGU CACGUdTdT-3′-Cy3 and the complement 5′-ACGUGACACGUUCGGAGAAdTdT-3′-Cy3) as an irrelevant control. The transfection of siRNA was performed using Lipofectamine 2000 (Invitrogen, Carlsbad, Calif., USA) according to the manufacturer's instructions. In brief, cells were harvested with 0.25% trypsin, 1 mM ethylenediaminetetraacetic acid (EDTA) in phosphate buffered saline (PBS) without Ca^2+ and Mg^2+, and plated in six-well plates at 10^5 per cm^2. Then 3.5 μl siRNA (100 μM solution) was mixed with 125 μl serum-free culture medium for 5 minutes at room temperature. During this incubation period, 5 μl of Lipofectamine 2000 was diluted in 125 μl serum-free culture medium. These two mixtures were combined, mixed gently, and incubated for 20 minutes at room temperature for complex formation. This 250 μl of siRNA-Lipofectamine mixture was then added into the cells in a final volume of 2.5 ml per well. The transfected cells were cultured and fed daily with fresh medium until they were assayed.
In general terms: ELISA stands for enzyme-linked immunosorbent assay.

For experiment [2], the system named is LPS-treated NSCs. In words: Cell survival rate of LPS-treated NSCs. The experiment is classed as cell-based, rat. Particulars: vs only LPS-treated NSCs; LPS 100 ng/ml. The protocol:
as §2
as §3, with “Then 3.5 μl siRNA (100 μM solution) was mixed with 125 μl serum-free culture medium for 5 minutes at room temperature. During this incubation period, 5 μl of Lipofectamine 2000 was diluted in 125 μl serum-free culture medium. These two mixtures were combined, mixed gently, and incubated for 20 minutes at room temperature for complex formation. This 250 μl of siRNA-Lipofectamine mixture was then added into the cells in a final volume of 2.5 ml per well. The transfected cells were cultured and fed daily with fresh medium until they were assayed.” left out

The subject of a further experiment is Bcl-2. The experiment in a line: Bcl-2 protein expression in NSCs by western blot and immunocytochemistry. The format is cell-based, rat. Particulars: treatment with either agent alone. The protocol: After the treatment with IM, the cell lysates of the NSCs were collected and the concentration of protein was determined by using the Protein Assay kit (Bio-Rad, Hercules, Calif., USA). Cell extracts with sample buffer were boiled for 5 minutes and then separated by 10% SDS-PAGE gel. After electrophoresis, the gel was transferred onto a PVDF membrane for immunoblotting. The membrane was first blocked by incubation in non-fat milk at room temperature for 2 hours, then incubated with anti-Bcl-2 antibody (Upstate Biotechnology Inc, Waltham, Mass., USA), and anti-β actin (Chemicon International Inc, Temecula, Calif., USA) for 2 hours at room temperature, washed five times with Tris-Buffered Saline Tween-20 (TBST), and then incubated further at room temperature with horseradish peroxidase-conjugated secondary antibody for 2 hours. Then the membrane was washed six times with TBST and specific bands were made visible by chemiluminescence (Santa Cruz Biotechnology, Santa Cruz, Calif., USA).
as §3
An avidin-biotin complex method was used for the immunohistochemical staining in the differentiated NSCs. Following washes with the 3% hydrogen peroxide, sodium azide and antigens were retrieved using a microwave. Each slide was then treated with antibodies for Bcl-2 (Upstate Biotechnology, Waltham, Mass., USA), Nestin (Chemicon, Temecula, Calif., USA), 4′, 6-diamidino-2-phenylindole (DAPI; Chemicon, Temecula, Calif., USA) and MAP2 (Chemicon, Temecula, Calif., USA). Immunoreactive signals were detected with a mixture of biotinylated rabbit anti-mouse IgG and Fluoresave (Calbiochem, La Jolla, Calif., USA) under confocal microscopy (Olympus, FV300). Each individual sample was analyzed in triplicate. Furthermore, apoptotic cells were identified by the TUNEL method (In Situ Cell Death Detection Kit, POD, Roche Boehringer Mannheim Corp., IN, USA) as described in Chiou et al., J. Immunol. 167, 4098-4103, 2001. Briefly, the cells with cover slips were washed with 1× phosphate buffered saline (PBS), fixed with 4% of paraformaldehyde for 10 minutes, permeabilized with 0.1% of triton X-100 for 5 mins, and incubated with the TUNEL reagent provided for 1 hour. Chromogenic development was then applied with 3-amino-9-ethyl-carbazole, and slides were counterstained with H & E stain. […]
(In general: Immunoblotting shows a protein as a band on a membrane.)

Experiment [3] relates to LPS-treated NSCs. The experiment in a line: LPS-induced apoptotic activity in NSCs, caspase 8 and 3 ELISA. The experiment is classed as cell-based, rat. As to conditions: vs only LPS-treated NSCs; p<0.05. How it is done: as §2, §3

With “NGF: NGF used to induce neural stem cells / PC-12 cells”, the “5-HT concentration in dialysate” value came to 2.94 ng/mL with PC-12 cells (basal 0.18 ng/ml) and 2.84 ng/mL in the experiment with neural stem cell (basal 0.18 ng/ml). Further, the figures for the “DA concentration in dialysate” value in the experiment with PC-12 cells (basal 6.04 ng/ml) and in the experiment on neural stem cell (basal 6.04 ng/ml) were 50.06 ng/mL and 46.9 ng/mL, respectively.

B1: BDNF: BDNF recombinant protein (protein, UniProt P23560 19-247, looked up)
Neurotrophic factor BDNF …: APMKEANIRGQGGLAYPGVRTHGTLESVNGPKAGSRGLTSLADTFEHVIEELLDEDQKVRPNEENNKDADLYTSRVMLSSQVPLEPPLLFLLEEYKNYLDAANMSMRVRRHSDPARRGELSVCDSISEWVTAADKKTAVDMSGGTVTVLEKVPVSKGQLKQYFYETKCNPMGYTKEGCRGIDKRHWNSQCRTTQSYVRALTMDSKKRIGWRFIRIDTSCVCTLTIKRGR
Turning to B1, in the experiment on LPS-treated NSCs [1], the “IL-1β production in LPS-treated NSCs” value is “significantly inhibited”, the “IL-6 production in LPS-treated NSCs” value is given as “significantly inhibited” and the “TNF-α production in LPS-treated NSCs” value is recorded as “significantly inhibited”. Moreover, in the experiment with LPS-treated NSCs [2], the “cell survival rate in LPS-treated NSCs” value was “significantly increases”. Besides, the “Bcl-2 expression in NSCs” value with Bcl-2 was “activate”. The “apoptotic activities in LPS-treated NSCs” value with LPS-treated NSCs [3] is given as “significantly inhibited”.

Source of the values: patent publication US20090105562A1, “SYSTEM AND METHODS FOR SCREENING OR ANALYZING TARGETS” (TAIPEI VETERANS GENERAL HOSPITAL, priority 2007, published 2009).
